Tests used:
[1] = test system: CcpA2CS (Staphylococcus aureus Newman); test: BLI; conditions: BLI: 25 mM Tris-HNO3, 80 mM NaNO3, 35 mM KNO3, 10 mM Mg(NO3)2, 0.1% Triton X-100, 10% glycerol, 0.1% BSA, 0.01% Tween 20, pH 7.5, 37 C; EMSA: 35 nM DNA in …
[2] = test system: CcpA2CS (Staphylococcus aureus Newman); test: BLI; conditions: BLI: 25 mM Tris-HNO3, 80 mM NaNO3, 35 mM KNO3, 10 mM Mg(NO3)2, 0.1% Triton X-100, 10% glycerol, 0.1% BSA, 0.01% Tween 20, pH 7.5, 37 C; EMSA: 35 nM DNA in …; remark: listed apart in the source
[3] = test system: CcpA (SaCcpA) (Staphylococcus aureus Newman); test: BLI; conditions: no Ag+; 10 mM Mg2+; BLI: 25 mM Tris-HNO3, 80 mM NaNO3, 35 mM KNO3, 10 mM Mg(NO3)2, 0.1% Triton X-100, 10% glycerol, 0.1% BSA, 0.01% Tween 20, pH 7.5, 37 C; EMSA: 35 nM DNA in …
[4] = molecular target: T1, CcpA (SaCcpA) (Staphylococcus aureus Newman) (UniProt P99175); test: EMSA; conditions: BLI: 25 mM Tris-HNO3, 80 mM NaNO3, 35 mM KNO3, 10 mM Mg(NO3)2, 0.1% Triton X-100, 10% glycerol, 0.1% BSA, 0.01% Tween 20, pH 7.5, 37 C; EMSA: 35 nM DNA in …
T1 sequence: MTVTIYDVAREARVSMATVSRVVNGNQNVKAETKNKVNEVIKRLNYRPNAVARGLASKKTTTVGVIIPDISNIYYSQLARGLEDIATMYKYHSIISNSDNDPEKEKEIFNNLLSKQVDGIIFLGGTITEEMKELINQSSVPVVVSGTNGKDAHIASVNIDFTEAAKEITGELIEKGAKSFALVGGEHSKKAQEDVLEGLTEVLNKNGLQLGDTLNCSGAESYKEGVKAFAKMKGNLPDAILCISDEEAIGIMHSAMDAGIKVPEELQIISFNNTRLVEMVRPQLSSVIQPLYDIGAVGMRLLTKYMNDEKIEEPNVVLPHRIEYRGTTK

[5] = molecular target: the molecule itself; test: SEC; size-exclusion chromatography of purified CcpA without Ag+
[6] = molecular target: the molecule itself; test: SEC; size-exclusion chromatography of purified CcpA pre-incubated with Ag+ (0.6, 1.2, 2.0 molar equivalents; CcpA^2CS with 2.0)

## biotinylated pckA promoter probe
[1]
  Kd: 20.7 nM
[2]
  Kd: 15.1 nM
[3]
  Kd: 16.1 nM

## ACTCGTACCACCAGTCACTATAAAATGTTGTCCTTTCATCAATTAACCTTCCTTTTCAATTATATAGAATGCAATTTATCAACTTTACATAATTGAGACAAGTTGATTATCTTTCCTAATATATATACAATAATAAGAAAATATAACATACAAATCAAAAACTAAAGGGATGTGACGTTAATGAAACTCG (double strand) [proC probe]
[4]
  binding: no binding

B1: Staphylococcus aureus catabolite control protein A (CcpA), wild type (natural protein, UniProt Q5HF38 1-329, looked up)
chain: MTVTIYDVAREARVSMATVSRVVNGNQNVKAETKNKVNEVIKRLNYRPNAVARGLASKKTTTVGVIIPDISNIYYSQLARGLEDIATMYKYHSIISNSDNDPEKEKEIFNNLLSKQVDGIIFLGGTITEEMKELINQSSVPVVVSGTNGKDAHIASVNIDFTEAAKEITGELIEKGAKSFALVGGEHSKKAQEDVLEGLTEVLNKNGLQLGDTLNCSGAESYKEGVKAFAKMKGNLPDAILCISDEEAIGIMHSAMDAGIKVPEELQIISFNNTRLVEMVRPQLSSVIQPLYDIGAVGMRLLTKYMNDEKIEEPNVVLPHRIEYRGTTK
notes: catabolite control protein A (CcpA) of Staphylococcus aureus; has two cysteines, Cys216 and Cys242; Dimer by SEC without Ag+; written as the protomer for the rows of self-association; Host, tags and limits are in the ESI; also called SaCcpA; WT CcpA
[5]
  stoichiometry N: 2
[6]
  stoichiometry N: 4

B2: Staphylococcus aureus CcpA C216S mutant (natural protein)
chain: MTVTIYDVAREARVSMATVSRVVNGNQNVKAETKNKVNEVIKRLNYRPNAVARGLASKKTTTVGVIIPDISNIYYSQLARGLEDIATMYKYHSIISNSDNDPEKEKEIFNNLLSKQVDGIIFLGGTITEEMKELINQSSVPVVVSGTNGKDAHIASVNIDFTEAAKEITGELIEKGAKSFALVGGEHSKKAQEDVLEGLTEVLNKNGLQLGDTLNSSGAESYKEGVKAFAKMKGNLPDAILCISDEEAIGIMHSAMDAGIKVPEELQIISFNNTRLVEMVRPQLSSVIQPLYDIGAVGMRLLTKYMNDEKIEEPNVVLPHRIEYRGTTK
[6]
  stoichiometry N: 4

B3: Staphylococcus aureus CcpA C242S mutant (natural protein)
chain: MTVTIYDVAREARVSMATVSRVVNGNQNVKAETKNKVNEVIKRLNYRPNAVARGLASKKTTTVGVIIPDISNIYYSQLARGLEDIATMYKYHSIISNSDNDPEKEKEIFNNLLSKQVDGIIFLGGTITEEMKELINQSSVPVVVSGTNGKDAHIASVNIDFTEAAKEITGELIEKGAKSFALVGGEHSKKAQEDVLEGLTEVLNKNGLQLGDTLNCSGAESYKEGVKAFAKMKGNLPDAILSISDEEAIGIMHSAMDAGIKVPEELQIISFNNTRLVEMVRPQLSSVIQPLYDIGAVGMRLLTKYMNDEKIEEPNVVLPHRIEYRGTTK
[6]
  stoichiometry N: 4

— article PMC5855135 (Chemical Science, 2017)
